Data: patent publication EP4793287A1, “TUMOR MICROENVIRONMENT SPECIFICALLY ACTIVATED CD47 ANTIBODY” (Affinity (Shanghai) Biopharmaceutical Co., Ltd., priority 2023, dated 2025)

Columns and labels:
[1] = target: T1, binding of CD47 on Raji cells to SIRPα (Homo sapiens, UniProt Q08722); assay: Blocking of SIRPα binding on Raji cells (FACS); format: cell-based
T1 construct: endogenous in cells; host or cells: Raji
Experimental: The required cell line, Raji (cultured in RPMI-1640 (ATCC Modification, Gibco, Cat# A10491-01) + 10% FBS (BI, Cat# 04-001-1A) + 1× P/S), was expanded to the logarithmic phase. Cells were collected and pipetted to create a single-cell suspension, followed by centrifugation and removal of the supernatant. The cells were resuspended in FACS buffer (PBS + 2% FBS) and counted, and the cell density was adjusted to 2×10^6/ml. 100 µl/well of this suspension was added to a 96-well plate (Corning, Cat# 3799). After centrifugation and removal of the supernatant, 100 µl/well of the antibody sample to be tested (CD47 Antibodies at an initial concentration of 200 nM, with 5-fold gradient dilutions and 8 dilution points, mixed with an equal volume of Human SIRP alpha, mFc (DIMA Biotech, Cat# PME100531) at 16 µg/ml) was added, mixed with the cells, and incubated at 4 °C for 1 hour. Cells were washed by centrifugation with FACS buffer for three times, then added with 100 µl/well of Goat F(ab')2 Anti-Mouse IgG-Fc (PE), pre-adsorbed (abcam, Cat# ab98742, 1:200 dilution) and incubated at 4 °C for 1 hour. After three washes with FACS buffer by centrifugation, the cells were resuspended in 200 µl/well of FACS buffer and analyzed using FACS (BECKMAN COULTER, CytoFLEX). Data were fitted and the results were analyzed using software (GraphPad Prism 8).

[2] = tested on: Human red blood cells (RBCs); assay: FACS binding to red blood cells
Experimental: Human red blood cells (RBCs) (XFB-RBC, 10 ml) were centrifuged, and the supernatant was discarded. The cells were resuspended in FACS buffer (PBS + 2% FBS) and counted, and the cell density was adjusted to 2×10^6/ml. 100 µl/well of this suspension was added to a 96-well plate. After centrifugation and removal of the supernatant, the antibody to be tested (initial concentration of 100 nM, 5-fold gradient dilutions, 8 dilution points) was added at 100 µl/well, mixed with the cells, and incubated at 4 °C for 1 hour. Cells were washed by centrifugation with FACS buffer for three times, then added with 100 µl/well of Goat anti-Human IgG Fc Secondary Antibody, PE (eBioscience™, Invitrogen, Cat# 12-4998-82, 1:200 dilution) and incubated at 4 °C for 1 hour. After three washes with FACS buffer by centrifugation, the cells were resuspended in 200 µl/well of FACS buffer and analyzed using FACS (BECKMAN COULTER, CytoFLEX). Data were fitted and the results were analyzed using software (GraphPad Prism 8).

[3] = tested on: Human small cell lung cancer SHP-77 cells; assay: In vivo efficacy, subcutaneous SHP-77 tumor model (Example 11); parameters: species or system CB17-SCID mice; settings: for T/C ratio / TGI inhibition rate: after 38 days of treatment
Experimental: Human small cell lung cancer SHP-77 cells were subcutaneously transplanted into CB17-SCID mice to establish an in vivo model. SHP-77 cells were cultured according to standard culture conditions and were collected during the exponential growth phase for counting. Each mouse was inoculated on the right flank with 2.5×10^6 human small cell lung cancer SHP-77 cells (suspended in 0.1 ml of basal medium). After inoculation, when the tumors grew to 60-103 mm^3 (5 days post-tumor implantation), the mice were randomly grouped based on body weight and tumor volume. The experimental groups were divided as follows:
Treatment was started on the day of grouping. Mice were weighed, and tumor volumes were measured twice a week. Tumor volume was calculated using the formula: tumor volume = 1/2 × length × width × width (mm^3). The tumor growth inhibition rate TGI (%) was calculated as [1 - (Tt - T0) / (Ct - C0)] × 100%. The tumor inhibition rate T/C (%) was calculated as (Tt/T0) / (Ct/C0) × 100%. T0 represents the tumor volume of the test antibody group at the time of grouping; Tt represents the tumor volume of the test antibody group at each measurement; C0 represents the average tumor volume of the PBS group at the time of grouping; Ct represents the average tumor volume of the PBS group at each measurement.

T1 sequence (Q08722 19-323): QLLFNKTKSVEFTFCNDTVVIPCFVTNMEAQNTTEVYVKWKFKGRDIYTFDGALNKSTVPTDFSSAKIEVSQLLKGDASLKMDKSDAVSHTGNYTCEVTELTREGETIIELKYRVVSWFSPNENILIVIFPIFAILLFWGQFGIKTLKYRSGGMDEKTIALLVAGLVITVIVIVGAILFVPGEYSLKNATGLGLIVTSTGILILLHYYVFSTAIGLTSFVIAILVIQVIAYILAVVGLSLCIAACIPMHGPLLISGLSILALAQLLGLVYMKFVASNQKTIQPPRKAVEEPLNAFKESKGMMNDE

B1: CD47 TMEAbody: CD47 TMEAbody conjugated with PEG of approximately 20K molecular weight (i.e., PEG20K) (conjugate)
VH: QQQLEESGGGLVKPEGSLTLTCTASGFSFSSGYDMCWVRQAPGRGLEWIACIYTRSSGGTCYASWAKGRFTISKTSSTVDLRMTSLTAADTATYFCAGGRSSYRLNLWGQGALVTVSS
VL: DVVMTQTPSPVEAAVGGTVTIKCQASQSISNELSWYQQKPGQPPKLLIYRASTLESGVSSRFKGSGSGTEFTLTISDLECADAATYYCQSTFYGDYGNAFGGGTEVVVK
[1]; after the CD47 TMEAbody was activated
  activity in blocking the binding of CD47 on Raji cells to SIRPα: restored
[1]; not activated
  activity in blocking the binding of CD47 on Raji cells to SIRPα: significantly reduced
[2]
  binding to red blood cells: essentially no binding to red blood cells
[3]; 0.3 mg/kg, D0
  Tumor Volume: 79.15 mm^3
[3]; 0.3 mg/kg, D3
  Tumor Volume: 63.51 mm^3
[3]; 0.3 mg/kg, D7
  Tumor Volume: 44.29 mm^3
[3]; 0.3 mg/kg, D10
  Tumor Volume: 42.63 mm^3
[3]; 0.3 mg/kg, D14
  Tumor Volume: 42.49 mm^3
[3]; 0.3 mg/kg, D17
  Tumor Volume: 44.81 mm^3
[3]; 0.3 mg/kg, D21
  Tumor Volume: 74.08 mm^3
[3]; 0.3 mg/kg, D24
  Tumor Volume: 116.17 mm^3
[3]; 0.3 mg/kg, D28
  Tumor Volume: 142.04 mm^3
[3]; 0.3 mg/kg, D31
  Tumor Volume: 194.29 mm^3
[3]; 0.3 mg/kg, D35
  Tumor Volume: 272.39 mm^3
[3]; 0.3 mg/kg, D38
  Tumor Volume: 373.67 mm^3
[3]; 0.3 mg/kg
  T/C ratio: 29.52%
  TGI inhibition rate: 75.38%
[3]; 1 mg/kg, D0
  Tumor Volume: 79.75 mm^3
[3]; 1 mg/kg, D3
  Tumor Volume: 69.70 mm^3
[3]; 1 mg/kg, D7
  Tumor Volume: 47.94 mm^3
[3]; 1 mg/kg, D10
  Tumor Volume: 36.61 mm^3
[3]; 1 mg/kg, D14
  Tumor Volume: 32.95 mm^3
[3]; 1 mg/kg, D17
  Tumor Volume: 20.93 mm^3
[3]; 1 mg/kg, D21
  Tumor Volume: 19.98 mm^3
[3]; 1 mg/kg, D24
  Tumor Volume: 27.75 mm^3
[3]; 1 mg/kg, D28
  Tumor Volume: 17.69 mm^3
[3]; 1 mg/kg, D31
  Tumor Volume: 21.42 mm^3
[3]; 1 mg/kg, D35
  Tumor Volume: 15.37 mm^3
[3]; 1 mg/kg, D38
  Tumor Volume: 14.44 mm^3
[3]; 1 mg/kg
  T/C ratio: 1.13%
  TGI inhibition rate: 105.46%
[3]; 3 mg/kg, D0
  Tumor Volume: 79.00 mm^3
[3]; 3 mg/kg, D3
  Tumor Volume: 65.86 mm^3
[3]; 3 mg/kg, D7
  Tumor Volume: 44.80 mm^3
[3]; 3 mg/kg, D10
  Tumor Volume: 33.94 mm^3
[3]; 3 mg/kg, D14
  Tumor Volume: 27.48 mm^3
[3]; 3 mg/kg, D17
  Tumor Volume: 24.62 mm^3
[3]; 3 mg/kg, D21
  Tumor Volume: 9.14 mm^3
[3]; 3 mg/kg, D24
  Tumor Volume: 13.52 mm^3
[3]; 3 mg/kg, D28
  Tumor Volume: 10.79 mm^3
[3]; 3 mg/kg, D31
  Tumor Volume: 17.13 mm^3
[3]; 3 mg/kg, D35
  Tumor Volume: 14.44 mm^3
[3]; 3 mg/kg, D38
  Tumor Volume: 12.85 mm^3
[3]; 3 mg/kg
  T/C ratio: 1.02%
  TGI inhibition rate: 105.53%
[3]; 0.3-3 mg/kg
  tumor growth inhibition: significant tumor growth inhibition
[3]; during the treatment period
  changes in body weight: No significant changes in body weight
